Measurements: paper PMC2806001

Molecular target: T1, Peroxiredoxin 1 (Prx1) WT, recombinant (mouse), P35700
T1 chain: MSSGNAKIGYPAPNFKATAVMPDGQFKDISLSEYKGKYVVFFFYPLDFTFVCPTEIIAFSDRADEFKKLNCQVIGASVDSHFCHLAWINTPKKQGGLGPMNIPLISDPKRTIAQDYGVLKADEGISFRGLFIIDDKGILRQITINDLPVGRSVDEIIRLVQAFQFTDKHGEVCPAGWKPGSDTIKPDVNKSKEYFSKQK
Assay: native gel or EMSA; BN-PAGE of purified recombinant proteins incubated for 1 hour at room temperature (20 μg p66CH2CB with 40 μg Prx1 WT or 20 μg Prx1-Cys83Ser); bands cut out and separated in a second, denaturing SDS-PAGE dimension
Details: remark: other sources report otherwise

B1: Peroxiredoxin 1 (Prx1) WT, recombinant, P35700 1-199 (enzyme)
chain: MSSGNAKIGYPAPNFKATAVMPDGQFKDISLSEYKGKYVVFFFYPLDFTFVCPTEIIAFSDRADEFKKLNCQVIGASVDSHFCHLAWINTPKKQGGLGPMNIPLISDPKRTIAQDYGVLKADEGISFRGLFIIDDKGILRQITINDLPVGRSVDEIIRLVQAFQFTDKHGEVCPAGWKPGSDTIKPDVNKSKEYFSKQK
stoichiometry N: 10
